Test results: US20230105209A1 (ACADEMIA SINICA, published 2023)

Biological target: SARS-CoV-2 spike S2 (SARS-CoV-2, UniProt P0DTC2 686-1213)
Experiment: ELISA

B1: m31A7 monoclonal antibody (chimeric IgG1) (antibody, V domains shown)
VH: EVQLQQSGPEMVKPGASVKISCKTSGYTFTEYTIYWVKQSHGKSLEWLGGINPNIGDTTYNQKFKGKATLTVDTSSSTAYMELRSLTSEDSAVYYCAREVYNYSFAYWGQGTLVTVSA
VL: DIVMSQSPSSLAVSVGEKVTMSCKSSQSLLYSSNQKNYLAWYQQKLGQTPKLLIYWASSRESGVPDRFTGSGSGTDFTLTISSVRAEDLAVYYCQQYYRYPLTFGVGTKLELKR
notes: also called m31A7 mAb; m31A7 IgG
B1: no binding.
